Literature values, collected in patent publication US7550436B2, “Compositions containing peptide and electrolyte excretion promoter and foods containing the same” (Kracie Pharma, Ltd., priority 2000, dated 2009).
No end group written: not given here.

Biological target: angiotensin converting enzyme (Homo sapiens, UniProt P12821)
Details: reported in JP-B-60-23085, JP-B-61-51562, JP-B-61-51564, JP-B-5-21092

Sequence of angiotensin converting enzyme (P12821 30-1306, species assumed): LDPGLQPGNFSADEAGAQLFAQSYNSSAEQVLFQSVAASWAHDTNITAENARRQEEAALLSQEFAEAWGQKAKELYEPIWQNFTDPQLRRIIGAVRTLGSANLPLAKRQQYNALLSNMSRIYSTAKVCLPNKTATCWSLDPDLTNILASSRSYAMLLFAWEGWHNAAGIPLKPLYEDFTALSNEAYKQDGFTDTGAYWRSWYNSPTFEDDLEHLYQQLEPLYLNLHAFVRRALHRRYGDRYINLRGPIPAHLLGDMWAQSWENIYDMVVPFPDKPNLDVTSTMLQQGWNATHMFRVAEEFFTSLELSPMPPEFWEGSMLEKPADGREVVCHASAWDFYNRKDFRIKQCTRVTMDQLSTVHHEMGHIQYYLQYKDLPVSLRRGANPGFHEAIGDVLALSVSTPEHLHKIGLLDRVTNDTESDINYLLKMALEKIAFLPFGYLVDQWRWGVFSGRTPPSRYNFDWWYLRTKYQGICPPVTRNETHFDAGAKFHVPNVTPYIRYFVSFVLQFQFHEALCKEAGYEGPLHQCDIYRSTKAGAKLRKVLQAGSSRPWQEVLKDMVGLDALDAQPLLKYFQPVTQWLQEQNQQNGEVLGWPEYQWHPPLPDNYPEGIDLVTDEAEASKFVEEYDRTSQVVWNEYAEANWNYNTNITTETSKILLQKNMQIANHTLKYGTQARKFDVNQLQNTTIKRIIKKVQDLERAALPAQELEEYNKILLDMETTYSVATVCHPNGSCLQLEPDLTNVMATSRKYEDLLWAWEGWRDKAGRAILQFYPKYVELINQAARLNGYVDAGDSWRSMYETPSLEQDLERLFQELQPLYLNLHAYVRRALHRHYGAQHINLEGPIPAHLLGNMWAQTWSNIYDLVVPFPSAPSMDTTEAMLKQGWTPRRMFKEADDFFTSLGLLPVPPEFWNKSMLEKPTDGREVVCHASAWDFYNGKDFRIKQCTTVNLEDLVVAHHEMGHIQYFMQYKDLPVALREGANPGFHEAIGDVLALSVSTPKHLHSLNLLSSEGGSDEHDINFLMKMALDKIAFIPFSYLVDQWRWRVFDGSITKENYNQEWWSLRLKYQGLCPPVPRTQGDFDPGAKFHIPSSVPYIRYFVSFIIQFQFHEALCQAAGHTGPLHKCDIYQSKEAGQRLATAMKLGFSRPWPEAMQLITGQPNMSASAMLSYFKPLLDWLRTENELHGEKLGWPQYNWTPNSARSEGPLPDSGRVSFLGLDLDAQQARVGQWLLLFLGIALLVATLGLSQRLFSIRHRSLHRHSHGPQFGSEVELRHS

Inhibitory activity to angiotensin converting enzyme (ACE), inhibitory activity:
AVPYPQR [Cβ7, ID No. 2, casein-origin peptide]
FFVAPFPEVFGK [Example C12, ID No. 1, casein-origin peptide]
TTMPLW [Example C6, ID No. 3, casein-origin peptide]
